A short description of the data set: label from the status in PepcDB records.
Take “MKASCSSFTCQSADGKHFLGRTYDEYGDISANKVSIIPRGYEISLTFMGNKENNKQIVKYAIVGMNVDMFDTPFLTEGMNEHGLMISLLFFPHFTQYNSKSNAEYDVNLGLLLPFVLGKCKNIEEAVALLQKINPVDEPESQMELPCHYLISDKTGESIVVEPLADGLKIYRNEMGVLTNSPTYEWHKINLRNYLGISNLAKETQVVNGYKIEELGEGTGYLGIPGDYTPVSRFVRLAFSKNYMPEPQNEIDAVNKMFNIFETVDVPEGVIYTPPLRTPYHEKTLCTSVMCSESLKYYFSTSTNCRICCVDLNKAMNNNSKELINIDIPFEQDILTLN”: the protein production entry is “failed”. Turning to “MKWNLDPSHTSIDFKVRHMGIASVRGSLKVLSGSVETDEAGRPIQVEAVIDAASIATGEPQRDGHLRSADFLHAEQYPEIRFVSTQIEPLGGNRYRIQGNLTIRDITKPVTLEAEVSAPIKDPWGMQRVAASASGQINRKDWNLTWNQVLELGALLVGEEVKFNLEVEAVAPAPVAAQ”, the protein production entry is on record as “not failed”.

For “MDHLLSGLATRLGQGPFVADRTGSYHLRIDGQSVLLLRQGDDLLLESPLEHAPLDPQRDQQGLLRALLSRVASWSRRYPQAIVLDADGRLLLQARLGLDGLDPERLERALAAQVGLLEALAPELEPLPRGLPPQAPVWRP”, the protein production result is reported as “failed”. For the sequence “MSSPSEFPLSEAPQSARKGLLPIAMVLFSFTFFTGTMFAGGKLGMAFSFVDMLWVATLGNSLLALYAAALAFIASRSGLNTVLMGRFCFGEAGSRLSDFLLGFAELGWYAWGTATVAIVLVKLLGLADGFGMPLMVLFGLGFSITAIIGFKGLDLLSRVSVPLMFVLLLVSMYIATRDAGGFAGLAAVVPHETMTFSAAVTMVFGTFASGATQATNWTRLARSGRVAVIASGVAFLLGNGLMVVAGAWCAMVYQQADIVDVMMLQGLSFAAVVMLCLNLWTIQGPTIYNVSAAACHLLRSERRRTATLVAAGVGIVLAMGGMYEMLIPFLVLLGSIIPPVGGVIMADFWYRHRGKYPPLCTANLPRYNLTGLFAYAVGAVLAYASPWVAPLVGIAASAVCYIVILELGARRRAPGQAGVEP”, the protein production result is “failed”.

As to “MSLTIKLIAIDIDGTLLNEKNELAQETIDAVQAAKAQGIKVVLCTGRPLTGVQPYLDAMGISGDDQYAITFNGSVAQTISGKVLTNHSLTYEDYIDLEAWARKVRAHFQIETPDYIYTANKDISAYTIAESYLVRMLIRYREVSETPRDLTISKAMFVDYPQVIEQVKANMPQDFKDRFSVVQSAPYFIEVMNRRASKGGTLSELVDQLGLTADDVMTLGDQGNDLTMIKYAGLGVAMGNAIDEVKEAAQAVTLTNAENGVAAAIRKYALNEGHHHHHH”, the protein production entry is listed as “not failed”. For the sequence “MSSMYTTFAEQYDNVVQDNIYNAYLERPSLQAMLGDVNGCDVIDLGCGSGVYADYFIHRGVAKLTCIDYSPNMIEIVKRKFGDRVTAYAQDASIGLIKEASESADLIISPLMIHYLEDLSVLFNDVARVLKNGGNFAFSTHHPFADFECTLSGNYFEREFITEMWNTVGEPVEVTFYRRSLTEIMNAITDSGLVVTQLSEGKVAEEVKQISLEKYEYLSKNPNFIFIKCQKLV”, the protein production result is given as “failed”. With “MYIPNAFRESDTHNLQEHMDKTRLAILVTQGDDGLHATHLPLLLRSDEGPYGTLYGHMAKANPQWQQLNADAEAMVIFPGEDAYVSPSFYPSKAEHGKVVPTWNYLAVHAYGQAECFTDPDRLHQLLNDLTDRHESSRAQPWSINDAPADYIAKMLGAIVGFSIPVQRL” the entry was “failed”; with “MASTDYHVDLTNCDREPIHIPGYIQPHGCLIACDNAMRMVLRHSENCGELLGLEGDLNGRTAEDVLGKKLVHDLRNALTVTGRTTRPAMLPAMETSDGRSFDISLHRYKSTTIIEFEPSGSDAQPLGTARKMVDRIREADSVESLISRTTRLVKATLGYDRVMIYRFQEDGAGKVVSEAKQPELESFLGQYFPASDIPQQARALYLKNTLRIISDASGTRIPVLPAVDVSGEPLDLSYAHLRSVSPIHCEYLRNMGVAASMSISVIVDGALWGLIACHHYSPRVLSMPVRIAAEMFGEFFSMHLQVLKQKRRLDTINHAHAALDRFLRLAAHHANIEELLVDSFQDFADLMPCDGVGLWVGNNWHGHGATPPHDAIPRLARFVASASEGRVWATHALSQAIPEAEIYAGTAAGMLAIPLSQVKSDYLLFFRKEIVQNLNWAGNPEKSYETGPMGDRLTPRKSFAIWKETVRLQAQPWSEADREIAEAARIALVEVAFHHSELMAGERERAEVRQRMLNEELNHRVKNVLAIIKSLVGNPSQEGKTLQEYVTALKGRIQALSFAHDQIIRGEGGGALRDLLEAELSPHRSPETTVKLEGPQITLDSRAFSVMALVLHELATNAAKYGALSQNGGQLHVRWDVNENRDCEISWRETLLTTLPAPSRAGFGTALISRSIPYDLGGRSTIRYLPNGLEAEILLPFRHVSSVSAAFETKTEAETLPQPRRYNREEPLKVLLVEDQMLIAMDVENMLEDNGIKAIETATSSAMAIEKLKTYLPDVAILDINLGSDTSIPVARELHRRGIPFLFATGYADGSMVPDEFGAVPVIRKPYDEDALMAGIGVLVGDTERV”, “failed”. With “MSDSLVVCEVDPELKETLRKFRFRKETNNAAIIMKVDKDRQMVVLEDELQNISPEELKLELPERQPRFVVYSYKYVHDDGRVSYPLCFIFSSPVGCKPEQQMMYAGSKNRLVQTAELTKVFEIRTTDDLTETWLKEKLAFFR”, the protein production entry is “not failed”. “TSSTIFSGVAIYVNGYTDPSAEELRKLMMLHGGQYHVYYSRSKTTHIIATNLPNAKIKELKGEKVIRPEWIVESIKAGRLLSYIPYQLYT”: the protein production result is given as “not failed”. As for “MSNPQPEKVRVVVGDDHPLFREGVVRALSLSGSVNVVGEADDGAAALELIKAHLPDVALLDYRMPGMDGAQVAAAVRSYELPTRVLLISAHDEPAIVYQALQQGAAGFLLKDSTRTEIVKAVLDCAKGRDVVAPSLVGGLAGEIRQRAAPVAPVLSAREREVLNRIACGQSIPAIAAELYVAPSTVKTHVQRLYEKLGVSDRAAAVAEAMRQRLLD”, the protein production entry is reported as “not failed”. “MAKIKFFALGGQDERGKNCYVLEIDNDVFIFNVGSLTPTTAVLGVKKIIPDFSWIQENQARVKGIFIGNAITENLGSLEFLFHTVGFFPIYTSSIGASIIKSKINENKLNIARDKLEIHELKPLETIEISNHSITPFKVSSSLPSSFGFALNTDNGYIVFIDDFIVLNDKNIAFENQLNQIIPKLSDNTLLLITGVGLVGRNSGFTTPKHKSLEQLNRIITPAKGRIFVACYDSNAYSVMTLAQIARMQNRPFIIYSQSFVHLFNTIVRQKLFNNTHLNTISIEEINNSTNSIVVLTSPPDKLYAKLFKIGMNEDERIRYRKSDTFIFMTPKVAGYEEIEAQILDDIARNEVSYYNLGREILSIQASDEDMKFLVSSLKPKYIIPTGGLYRDFINFTMVLKQAGAEQNQILILFNGEVLTIENKKLDSKKNELKLNPKCVDSAGLQEIGASIMFERDQMSESGVVIIIIYFDQKKSEFLNEITYSFLGVSLDVPEKDKLKTKMEELIKKQINDIKDFTTIKKRIGKEISKELKVSIKRAVMNLFTKMTSKAPLILSTIISI”: the protein production result is reported as “failed”. In the case of “MRRFNTSQNKNERNLFNDYIKNEDELYDERDDEGINKEPISLKADVNNNFFPIDQIHSTYFLCNNLNNDNTEKEINEHISFEKIQDHEKEEKKKIFLFNLSDNQKKQIENLKINKIIQNEMYLKKNKILKYIIHIFISDILKEKPNDVYDYASNYFTQPQFKMYILEKLKLRINK”, the protein production result is listed as “failed”. With “IRRKINANVYDKVVLYAPTWRGIHGKATLDIEKLKNDLEKLADQDCHIVFRGHHMIEKLVSEQNISGITIVPSEIDTNELLGAIDILITDYSSIAFDFFVMNRPVIYYAYDIEQYNNERGLYFPLNELPGTVCFNDVELLNTLSGYLRNEIYFDASKGIDKFCKNDDGSVCGKVIEWFFF”, the protein production result is reported as “failed”. As to “MPDGPDPSSYGPDESPGPDPEEPSSSETAPARHARTTTASRRGHARERMPVSPDESASTFTFDRVVRFLLGAAAVGSVGWMVWYFAGIVLYLIVGGLLAYLLRPPVDYIQGLGVGRVPAILVAFAVFLGVIVVIVTSVVPFITRQVQDLSQLITIDTAAYVANLIEAQVQGVVPLEQGVLEENVRQAAESLMRGDLVEGQQVAETVSSVVSVFTNIVYAVVIVPFVTFFLLKDELRIRRSLLHLVPNRYFEVTLSILAKVELNIGRYFRALLVQGTAIAVIASTLLWIVGLRGAIAIGIFTGLANTIPYFGPFLGFLAGTLVGIAQTGDVSLVPGVALAMALTQLADNVLLQPLIFSRAAQTHPLVILFVVLAGAQLGGILGMLMAIPLTTTLRVIVEQLLWSLRNYRILRAG”, the protein production entry was “failed”.

As to “MTSSLQPDASRDAQREQVIAQLQQVIQRVPEQSEFTNTRRYQLLGPLFTLISLGMLAWGIQQGKTGMLLCGLFLSALFALVTWQHRHAGQHAFMRLTRRQLFVDSLSAPVNLTDVVDVHVKDEGLLTLQQLTLRPGSPLPTHRPVRQVFGNQAMALKSPEPHIRIHSAGLMSGGRKLAIDDIAALLDAYCQAANAQQQLDELQGRG”, the protein production result is on record as “failed”. Turning to “LPLCDSLIIWLQTFKTASPCQDVKQLTNGVTMAQVLHQIDVAWFSESWLSRIKDDVGDNWRIKASNLKKVLHGITSYYHEFLGQQISEELIPDLNQITECADPVELGRLLQLILGCAVNCEKKQEHIKNIMTLEESVQHVVMTAIQELMSK”, the protein production entry is on record as “not failed”. With “MFMIPAWLWIGLIAFALAFVCNRLSPRDLRWFNRLRRPSWLTFEWAIPFIWIAIFIAGAISATLAWNATADPGHRWGLMVGYLLLELTVMAYTPVMCKLRSLRVGSIIGATGFFVGLALVIAVSQVSTTAFGFLVPFLLWSPIGTYVTWAMIPLNPGEI” the entry was “failed”. For “DAFTDQKIRQRYADLPGELHIIELEKDKNGLGLSLAGNKDRSRMSIFVVGINPEGPAAADGRMRIGDELLEINNQILYGRSHQNASAIIKTAPSKVKLVFIRNEDAVNQMA”, the protein production entry was “not failed”.

For the sequence “MDILKSEILRKRQLVEDRNLLVENKKYFKRSELAKKEEEAYFERCGYKIQPKEEDQKPLTSSNPVLELELAEEKLPMTLSRQEVIRRLRERGEPIRLFGETDYDAFQRLRKIEILTPEVNKGLRNDLKAALDKIDQQYLNEIVGGQEPGEEDTQNDLKVHEENTTIEELEALGESLGKGDDHKDMDIITKFLKFLLGVWAKELNAREDYVKRSVQGKLNSATQKQTESYLRPLFRKLRKRNLPADIKESITDIIKFMLQREYVKANDAYLQMAIGNAPWPIGVTMVGIHARTGREKIFSKHVAHVLNDETQRKYIQGLKRLMTICQKHFPTDPSKCVEYNAL”, the protein production entry is given as “failed”. With “MKVMIEKILLVQTLKRLPRMGWLIKGVQEPESIADHSFGVAFITLVLADVLEKRGKRIDVEKALKMAIVHDLAEAIITDIPLSAQEFVDKDKAEALVFKKVFPEFYELYREYQECSSPEAQLVRIADKLDMILQAYQYELSGNKNLDEFWEAIEEIKRLELSKYLEDILNSVGRLKA” the entry was “not failed”; with “MHSTIGRLLEQTADAYPDRDAVVYPDRNIRYTYAQFDSLCRQTAKGLMRMGIGKGDHVAIWASNISEWLAVQFATAKIGAVLVTVNTNYQAHELDYLLKQSDAAALIIMDSYRGTSYPDIVNSLIPELQEAKPGQLKSERYPFLKTLIYIGNKRLSGMYHWDDTEILAKTVTDAELEERMNSLDKDNVINMQYTSGTTGFPKGVMLTHFNVINNAANIAECMALTSQDRMCIPVPFFHCFGCVLGVLACVSVGAAMIPVQEFDPVTVLKTVEKEKCTVLHGVPTMFIAELHHPDFDAYDLSTLRTGIMAGSPCPSEVMKAVIERMGMKDITIAYGQTEASPVITQTRANDSFIRRVETTGRALPHTEVKIVEPGTCQEVQRGMQGELCTRGYHVMKGYYKDKDATRKAINHDGWLFTGDLAVMDEDGYCRITGRLKDMLIRGGENIYPREIEEFLYQHPAVLDVQVVGVPDAKFGEEAAAWIKLKDGKSVSPDELKAYCKGKIARHKIPRYVIFTDDYPMTAS”, “failed”.
